In IntAct's records for PubMed 18550832:

Target: stk39_mouse Stk39 (UniProt Q9Z1W9)

Q: For “Serine/threonine-protein kinase WNK3 (Homo sapiens), Q9BYP7-2 F1337A”, which “effect of a mutation on the interaction” value is on record?
A: Its value is “disrupting interaction”.
